Results on 1 protein are retold here after ChEMBL document CHEMBL1148343, “Fragment-based drug discovery” (J Med Chem, 2004).

Substrate in the series: Nc1nc(=O)c2c([nH]1)NCC1CN(c3ccc(C(=O)N[C@@H](CCC(=O)O)C(=O)O)cc3)CN21
Briefly: Michaelis-Menten constant (Km) against thymidylate synthase.

B1: Thymidylate synthase (Lactobacillus casei), P00469 (protein)
chain: MLEQPYLDLAKKVLDEGHFKPDRTHTGTYSIFGHQMRFDLSKGFPLLTTKKVPFGLIKSELLWFLHGDTNIRFLLQHRNHIWDEWAFEKWVKSDEYHGPDMTDFGHRSQKDPEFAAVYHEEMAKFDDRVLHDDAFAAKYGDLGLVYGSQWRAWHTSKGDTIDQLGDVIEQIKTHPYSRRLIVSAWNPEDVPTMALPPCHTLYQFYVNDGKLSLQLYQRSADIFLGVPFNIASYALLTHLVAHECGLEVGEFIHTFGDAHLYVNHLDQIKEQLSRTPRPAPTLQLNPDKHDIFDFDMKDIKLLNYDPYPAIKAPVAV
Usually Km stands for the concentration of substrate that gives half-maximal velocity. For the protein B1, the Km is 14 µM.
